# According to US20050287158A1, “The p65 subunit of nf-kb for the radiosensitization of cells” (Georgetown University, priority 2002, published 2005):
# T1: caspase-3 (Homo sapiens, UniProt P42574)
# T1 construct: endogenous in cells; host or cells: lysates of SCC-35 and DN/CL6 cells after 5 Gy of IR
# T1 sequence (P42574 29-175 limits assumed): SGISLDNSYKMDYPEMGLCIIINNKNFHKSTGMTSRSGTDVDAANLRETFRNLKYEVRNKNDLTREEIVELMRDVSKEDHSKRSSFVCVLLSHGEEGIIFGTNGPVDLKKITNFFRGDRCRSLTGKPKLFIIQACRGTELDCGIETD
# Legend:
# NF-κB = NF-κB luciferase reporter assay (pNF-κB-Luc); assay type: cell-based, human; settings: DN/CL6 vs SCC-35 cells; IR 20 Gy or TNF-α 10 ng/ml, 6 h
# Method: Luciferase Reporter Assay: Cells were transiently transfected for 16 h with 5 μg/ml of plasmid DNA by using Lipofectin (Gibco-BRL). Following treatment with ionizing radiation (20 Gy) or TNF-α (10 ng/ml), cells were lysed at 6 h in Reporter Lysis Buffer (Promega), and centrifuged for 2 min at 14,000×g.
# To determine whether p65DN inhibits the activation of NF-κB, we transfected DN/CL6 cells with the NF-κB-specific luciferase reporter vector pNF-κB-Luc and then examined the effect of IR or TNF-α on luciferase activity. The stimulatory effects of these agents on NF-κB activity were reduced by a factor of 2 to 3 in DN/CL6 cells compared with those apparent in SCC-35 cells (FIG. 2B). Expression of p65DN thus inhibited NF-κB activation.
# IκB-α = test: Immunoblot analysis of IR-induced IκB-α Ser32 phosphorylation/degradation and nuclear p65; assay type: cell-based, human; settings: DN/CL6 cells
# Method: (§1) Western blotting: Following exposure to γ-radiation (1-20 Gy) (a ^137Cs J. L. Shepherrd Mark 1 laboratory irradiator) or TNF-α (10 ng/ml) treatment, cell extracts were prepared by using lysis buffer (50 mM Tris-Cl, pH 7.5, 100 mM NaCl, 0.1% NP40, 1 mM PMSF, 10 mg/ml leupeptin, 1 mg/ml aprotinin, 1 mg/ml perpstatin), followed by centrifugation at 12,000×g for 20 minutes. Protein quantities were determined using the BCA protein assay kit (Pierce). Equal amounts of cell extracts were analyzed on 10% SDS-polyacrylamide gels. The transblotted membranes were blocked in PBS containing 5% dry milk for 1 h and probed with specific antibodies, followed by washing with PBST. The membrane was then incubated with horse-radish peroxidase conjugated secondary antibodies for 30-60 minutes washed with PBST, and developed by using the ECL-chemiluminescence detection system (Amersham). Equal loading and transfer of proteins among lanes were confirmed by immunoblot analysis with antibodies to β-actin (Amersham) or by staining the membrane with Ponceau S. Other antibodies used in this study include anti-NF-κB(p65), IκB-α caspases-3, (Santa Cruz Biotechnology, Santa Cruz, Calif.) and PARP (Enzyme Synthesis, Dublin, Calif.).
# IκB-α binds to both subunits of the p50-p65 heterodimer. We therefore next determined the effect of p65DN expression on IR-induced phosphorylation and subsequent degradation of IκB-αin the cytoplasm. […] This conclusion is consistent with the previous observation that amino acids 1 to 101 of p65 are required for its binding to IκB-α (36). We therefore propose that p65DN interferes with the inhibitory function of IκB-α by binding to this protein in both the cytoplasm and nucleus.
# caspase-3 = target: T1, caspase-3; test: Caspase-3 activity, fluorogenic substrate assay after IR; assay type: cell-based; settings: DN/CL6 cells, IR 5 Gy
# Method: Measurement of caspase activities—The activity of caspases-3 was assayed fluorometrically with specific fluorogenic substrates: MOCAc-Asp-Glu-Val-Asp-Ala-Pro-Lys(DNP)-NH2 (Peptide Institute, Osaka, Japan) (34). Cell extracts (60 μg of protein) were incubated for 1 h at 37° C. with 600 nM substrate in a reaction mixture (500 μl) containing 10 mM Hepes-NaOH (pH 7.4), 40 mM P-glycerophosphate, 50 mM NaCl, 2 mM MgCl2, 5 mM EGTA, 1 mM DTT, 2 mM ATP, 10 mM creatine phosphate, and creatine kinase (50 μg/ml). The fluorescence of the cleaved substrates was measured with a Hitachi F-4500 spectrophotometer at excitation and emission wavelengths, respectively, of 328 and 393 nm for MOCAc-DEVDAPK(DNP)-NH2.
# The nuclear enzyme poly(ADP-ribose) polymerase (PARP), which plays an important role in the repair of DNA damage and in maintenance of genomic integrity (38, 39), is specifically cleaved between its NH2-terminal DNA-binding domain and its multifunctional COOH-terminal domain by caspase-3 or a caspase-3—like protease early during the execution phase of apoptosis (40). We therefore examined the effects of p65DN on both the cleavage of PARP and caspase-3 activity. […] Exposure to 5 Gy of γ-radiation induced a substantial increase in PARP cleavage within 48 h in DN/CL6 cells, whereas cleavage of this enzyme remained barely detectable at 72 h in SCC-35 cells (FIG. 4C).
# SCC-35 cells [1] = test: Apoptotic index after γ-radiation; assay type: cell-based, human; settings: DN/CL6 cells
# Text: Apoptotic Index: Adherent and floating cells were collected at various times after exposure to various doses (1-20 Gy) of gamma radiation (a ^137Cs J. L. Shepherd Mark 1laboratory irradiator) and stained with acridine-orange and ethidium bromide (14). About 600 cells (˜100 cells per field) were scored for the aberrant chromosome organizations under flourescence microscopy. The apoptotic cells=(total number of cells with apoptotic nuclei/total number of cells counted)×100. All values represent the mean±SE of the experiments. All experiments were performed more than three times.
# Activation of NF-κB contributes to the protection of many cell types from apoptotic cell death induced by DNA-damaging agents. However, under certain conditions and in certain cell types, activation of NF-κB induces apoptosis (37). Given that clonogenic survival analysis provides a measure of all types of cell death, we next determined the effect of p65DN expression on IR-induced apoptosis. IR induced a dose-dependent increase in the percentage of both SCC-35 and DN/CL6 cells characterized as apoptotic 48 h after irradiation (FIG. 4A). However, whereas the maximum proportion of apoptotic cells was 8% (evident at 20 Gy) for SCC-35 cells, confirming that apoptosis is not a major pathway of cell death in these cells, the maximum apoptotic index was 14% for DN/CL6 cells. The baseline apoptotic index for both cell lines was <1%.
# SCC-35 cells [2] = test: Radiation (clonogenic) survival assay; assay type: cell-based, human; settings: DN/CL6 cells
# Method: Radiation survival assay: Clonogenic dose response was determined as previously described (32). Briefly, exponentially growing cells were plated in T-25 flasks and exposed to graded doses of ionizing radiation in a ^137Cs J. L. Shepherrd Mark 1 laboratory irradiator with a dose accuracy of ±5%. Physics support for calibration and quality assurance was provided for all experimental protocols. Colony counts were fit to single hit multitarget (SHMT) and the linear quadratic (L-Q) models (33). Data points were obtained from two to three independent experiments in triplicates for each experiment.
# Impaired regulation of NF-κB in certain cell types is associated with intrinsic cellular radiosensitivity (14-16). To examine the role of NF-κB in determining cell sensitivity to radiation, we performed clonogenic survival assays after exposure of SCC-35 and DN/CL6 cells to graded doses of γ-radiation (FIG. 3). The sensitivity of DN/CL6 cells to IR was greater than that of the parental SCC-35 cells. According to the single-hit multitarget model (33), D0 values were determined to be 1.9 Gy (with α=0.16 and β=0.02) for SCC-35 cells and 1.2 Gy (with α=0.11 and β=0.06) for DN/CL6 cells. Because of the potential pitfalls of clonal heterogeneity associated with determination of radiation sensitivity in a clonal cell population, we also performed survival experiments with pooled transfected clones.
# endogenous p65 mRNA = test: Northern blot analysis of endogenous p65 mRNA in clonal cells expressing p65DN; assay type: cell-based, human; settings: cell clones expressing p65DN
# Method: (§2) Cell culture, Transfection and Clonal Selections: Human head and neck squamous carcinoma cells (SCC-35) were used for the experiments described. These cells have been previously characterized as resistant to ionizing radiation based on clinical and radiobiological parameters (30). Cells were cultured in 10 cm^2 dishes and maintained in Dulbeco modified Eagle's medium supplemented with 10% fetal bovine serum, 2 mML-amino acids. Cells were passaged routinely at 80-90% confluence and checked for mycoplasma contamination at three-month intervals. […] G418 resistant clonal cells were then subcloned and maintained in the complete medium containing G418 (400 μg/ml) as described above. Drug resistant colonies were pooled or subcloned for future studies.
# RNA was electrophoresed on a 1% formaldehyde-agarose gel and then transferred to the nitrocellulose membrane, followed by UV cross-linking. The membrane was hybridized with γ-^32P-dATP labeled cDNA probes for 16 h, washed, and autoradiographed.
# To investigate the effects of targeting p65 as a means of disrupting NF-κB activation, we transfected radioresistant human squamous carcinoma SCC-35 cells with an expression vector encoding amino acids 1 to 84 of human p65 (p65DN). The resulting G418-resistant colonies were isolated and analyzed for expression of p65DN and endogenous p65. […]
# PARP = PARP cleavage by immunoblot after γ-radiation; assay type: cell-based, human; settings: DN/CL6 cells
# Method: as §1, with “Calif.). […]” for “Calif.).”
# endogenous p65 protein = test: Immunoblot analysis of endogenous p65 protein in DN/CL6 cells; assay type: cell-based, human; settings: DN/CL6 cells (SCC-35 clone expressing p65DN)
# Method: as §2
# Western blotting: Following exposure to γ-radiation (1-20 Gy) (a ^137Cs J. L. Shepherrd Mark 1 laboratory irradiator) or TNF-α (10 ng/ml) treatment, cell extracts were prepared by using lysis buffer (50 mM Tris-Cl, pH 7.5, 100 mM NaCl, 0.1% NP40, 1 mM PMSF, 10 mg/ml leupeptin, 1 mg/ml aprotinin, 1 mg/ml perpstatin), followed by centrifugation at 12,000×g for 20 minutes. Protein quantities were determined using the BCA protein assay kit (Pierce). Equal amounts of cell extracts were analyzed on 10% SDS-polyacrylamide gels. […]
molecule,measurement,setting,value
"p65DN: dominant negative fragment, amino acids 1 to 84 of human p65 (RelA), expressed from vector pCR3.1 in SCC-35 cells (clone DN/CL6) (protein) MDELFPLIFPAEPAQASGPYVEIIEQPKQRGMRFRYKCEGRSAGSIPGERSTDTTKTHPTIKINGYTGPGTVRISLVTKDPPHR",factor of reduction of stimulatory effects of IR or TNF-α on NF-κB (luciferase) activity,NF-κB,2 to 3
same,amount of p65 in the nucleus after irradiation,IκB-α; IR,decrease
same,IR-induced phosphorylation of IκB-α on Ser32,IκB-α; at 3 h after irradiation,remained markedly increased
same,time after irradiation without detectable degradation of IκB-α,IκB-α; parental cells degraded within 1 h,up to 3 h
same,IR-induced activation of caspase-3 compared with SCC-35 cells,caspase-3,earlier and more pronounced activation
same,time at which substantial increase in apoptotic index was apparent,SCC-35 cells [1]; 5 Gy γ-radiation,24 h
same,maximum apoptotic index,"SCC-35 cells [1]; 48 h after irradiation, 2-20 Gy",14%
same,baseline apoptotic index,SCC-35 cells [1]; no irradiation,< 1%
same,α,SCC-35 cells [2]; clonogenic survival fit,0.11
same,β,SCC-35 cells [2]; clonogenic survival fit,0.06
same,D0,"SCC-35 cells [2]; single-hit multitarget model, graded γ-radiation doses",1.2 Gy
same,amount of endogenous p65 mRNA compared with parental SCC-35 cells,endogenous p65 mRNA,reduced
same,time to substantial increase in PARP cleavage,PARP; 5 Gy γ-radiation,≤ 48 h
same,γ-radiation dose resulting in PARP cleavage,PARP; data not shown,≤ 2 Gy
same,reduction of the amount of endogenous p65 protein compared with parental SCC-35 cells,endogenous p65 protein,75%
